Laboratory results from patent publication US12397037B2, “Methods and compositions for immunomodulation” (CHILDREN'S MEDICAL CENTER CORPORATION, priority 2014, dated 2025).

How the values were obtained:
Assay type in all cases: cell-based, human
[1] = system: U251 glioblastoma cells, a melanocyte cell line, Jurkat T lymphocytes, and endothelial cells; assay: Western blot in other cell lines expressing NRP2; details: SEMA3F 30 minutes
Method: FIGS. 34A-34D depict analysis of intracellular signaling pathway regulated by SEMA3F. FIG. 34A depicts a Western blot of the expression of pAkt, pmTOR and pS6K in U87MG cells treated with SEMA3F or PBS for 60 minutes and. FIG. 34B depicts a Western blot. U87MG cells were transfected with control or Plexin A1-specific siRNA (20 nM). After 48 hours, cells were treated with SEMA3F (640 ng/ml) for 30 and 60 minutes, and were analyzed by Western blot. FIG. 34C depicts NRP2 and Plexin A1 expression analyzed by Western blot with multiple cell lines. FIG. 34D depicts a Western blot of multiple NRP2-expressing cell lines were treated with SEMA3F for 30 minutes. All data presented are representative of 3 independent experiments.
SEMA3F inhibits Akt, mTOR, and S6K phosphorylation. To determine the effect of SEMA3F on intracellular signaling responses, levels of phosphokinases in the NRP2-expressing human glioblastoma cell line U87MG were profiled.
Western blotting: Proteins within each sample were separated by SDS-PAGE and transferred to nitrocellulose membranes. […] After washing with TBS-T, membranes were incubated with the appropriate horseradish peroxidase-conjugated secondary antibody, and immunoreactivity was detected by using ECL detection reagents.

mTORC1 and mTORC2 = assay: Immunoprecipitation of mTOR with raptor and rictor in U87MG cells; details: SEMA3F 640 ng/ml, 30 minutes
Method: FIG. 29A depicts U87MG cells treated with SEMA3F (640 ng/ml) for 30 minutes and subjected to immunoprecipitation and Western blot analysis with anti-mTOR, -raptor and -rictor as illustrated. FIG. 29B depicts U87MG cells treated with rapamycin (10 nM) or Torin 1 (10 nM) for 30 minutes, prior to SEMA3F (640 ng/ml) treatment for 60 minutes; lysates were analyzed by Western blot. FIG. 29C depicts bar graphs representing densitometric analysis of the illustrated blot showing the fold change in intensity (mean±SD) relative to the untreated control (*, p <0.01; **, p<0.001 vs. untreated control). FIG. 29D depicts U87MG cells transiently transfected with a pcDNA3.1 empty vector or with constitutively active Akt (2DAkt). Cells were treated with SEMA3F (640 ng/ml) and lysates were analyzed by Western blot. All data are representative of 3 independent experiments.
FIGS. 35A-35B depict analysis of the effect of SEMA3F on mTORC2 activity. […] depicts a Western blot. U87MG cells were transiently transfected with a pcDNA3.1 empty vector or with constitutively active Akt (2DAkt). Cells were treated with SEMA3F (640 ng/ml) and lysates were analyzed by Western blot. FIG. 35B depicts a Western blot. U87MG cells were transiently transfected with a pcDNA3.1 empty vector or with 2DAkt. […]

U87MG cells = assay: F-actin stress fiber staining (phalloidin) in U87MG cells
Method: FIG. 30A depicts U87MG cells treated with SEMA3F (640 ng/ml), rapamycin (10 nM) or Torin 1 (10 nM) for 30 minutes. Subsequently, cells were stained with Alexa Fluor 488 phalloidin and Hoechst 33342 to identify F-actin cytoskeleton stress fibers and cellular nuclei, respectively. […] The scale bar indicates 20 μm. FIG. 30B depicts U87MG cells transiently transfected with a pcDNA3.1 empty vector or with a wild type (WT) mTOR plasmid and after 18 hours treated with SEMA3F (640 ng/ml) for 30 minutes. Cells were stained as described above in FIG. 30A. Representative cellular staining is shown; bar graph represents the number of fibers/cell (mean±SD) from 3 independent experiments. FIG. 30C depicts U87MG cells transfected with control siRNA or with raptor- or rictor-specific siRNAs (20 nM). After 48 hours, they were treated with SEMA3F for 30 minutes and stained with Alexa Fluor 488 phalloidin and Hoechst 33342 as above. The number of stress fibers was evaluated in 3 independent experiments and shown as the mean±SD. FIG. 30D depicts U87MG cells transiently transfected with pcDNA3.1 empty vector or with our WT mTOR plasmid. After 18 hours, the cells were treated with SEMA3F (640 ng/ml) for 10 minutes and RhoA activity was evaluated. FIG. 30E depicts U87MG cells transfected with control siRNA or with raptor- or rictor-specific siRNAs (20 nM), were treated with SEMA3F (640 ng/ml) for 10 minutes and RhoA activity was analyzed. In FIGS. 30D-30E, the intensity of active RhoA was normalized to respective total RhoA; the numbers below each gel lane represent the fold-change in intensity relative to control. FIGS. 30D-30E are representative of 3 independent experiments.
mTORC2 links SEMA3F biology with the F-actin cytoskeleton. It was next determined whether the inhibition of mTORC2 serves as an intermediary response to link SEMA3F activity with cytoskeletal collapse. U87MG cells were treated either with SEMA3F (640 ng/ml), rapamycin (10 nM) or Torin 1 (10 nM) for 30 minutes and the actin cytoskeleton was visualized using phalloidin staining. […] These findings indicate that SEMA3F has minimal direct effects on mTORC1.
F-actin staining: Cells were fixed with 4% paraformaldehyde (PFA) followed by permeabilization with 0.2% Triton X-100 in PBS. F-actin and nuclei were stained with Alexa Fluor 488 phalloidin and Hoechst 33342, respectively. Confocal images from 3-5 areas of each culture were reviewed and stress fibers were counted in representative individual cells (˜5/experiment) using standard methodology as described6.

VEGF = VEGF protein in conditioned media by ELISA, U87MG cells; details: SEMA3F, rapamycin 10 nM or Torin 1 10 nM, 30 minutes prior to DFO, supernatants after 18 hours
Method: In each panel data are representative of 3 independent experiments. Bar graphs represent the mean±SD of n=3 experiments performed in triplicate, *, p<0.01 vs. control.
Finally, the effect of SEMA3F on the secretion of VEGF into conditioned media (by ELISA) was determined in the absence or presence of DFO.
The VEGF-A (DVE00) ELISA kit was obtained from R&D Systems (Minneapolis, MN). […] Desferrioxamine (DFO) was purchased from Sigma-Aldrich, and the MEK inhibitor (U0126) was purchased from EMD-Millipore (Billerica, MA). pGL4.74 [hRluc/TK] vector (Promega Madison, WI) was used as an internal control in luciferase assay.

B1: SEMA3F: Human recombinant full-length His-Myc-tagged SEMA3F, secreted by transfected 293T cells and purified; class 3 semaphorin, NRP-2 ligand (protein, listed as Homo sapiens)
chain: MLVAGLLLWASLLTGAWPSFPTQDHLPATPRVRLSFKELKATGTAHFFNFLLNTTDYRILLKDEDHDRMYVGSKDYVLSLDLHDINREPLIIHWAASPQRIEECVLSGKDVNGECGNFVRLIQPWNRTHLYVCGTGAYNPMCTYVNRGRRAQATPWTQTQAVRGRGSRATDGALRPMPTAPRQDYIFYLEPERLESGKGKCPYDPKLDTASALINEELYAGVYIDFMGTDAAIFRTLGKQTAMRTDQYNSRWLNDPSFIHAELIPDSAERNDDKLYFFFRERSAEAPQSPAVYARIGRICLNDDGGHCCLVNKWSTFLKARLVCSVPGEDGIETHFDELQDVFVQQTQDVRNPVIYAVFTSSGSVFRGSAVCVYSMADIRMVFNGPFAHKEGPNYQWMPFSGKMPYPRPGTCPGGTFTPSMKSTKDYPDEVINFMRSHPLMYQAVYPLQRRPLVVRTGAPYRLTTIAVDQVDAADGRYEVLFLGTDRGTVQKVIVLPKDDQELEELMLEEVEVFKDPAPVKTMTISSKRQQLYVASAVGVTHLSLHRCQAYGAACADCCLARDPYCAWDGQACSRYTASSKRRSRRQDVRHGNPIRQCRGFNSNANKNAVESVQYGVAGSAAFLECQPRSPQATVKWLFQRDPGDRRREIRAEDRFLRTEQGLLLRALQLSDRGLYSCTATENNFKHVVTRVQLHVLGRDAVHAALFPPLSMSAPPPPGAGPPTPPYQELAQLLAQPEVGLIHQYCQGYWRHVPPSPREAPGAPRSPEPQDQKKPRNRRHHPPDT
modifications: His-Myc tag
notes: Human recombinant full-length His-Myc-tagged SEMA3F, secreted by transfected 293T cells and purified; class 3 semaphorin, NRP-2 ligand
- Akt (S473) and S6K phosphorylation [1]: inhibited
- association between mTOR and raptor / rictor (mTORC1 and mTORC2): inhibited the association between mTOR and both raptor and rictor
- mTOR/rictor interaction in 2DAkt transfected cells (mTORC1 and mTORC2): inhibited mTOR/rictor interaction
- stress fiber formation in mTOR overexpressing cells (U87MG cells; U87MG cells transfected with mTOR overexpression construct, SEMA3F 640 ng/ml, 30 minutes): minimal effects on stress fiber formation
- stress fiber formation and cytoskeletal arrangement (U87MG cells; U87MG cells, SEMA3F 640 ng/ml, rapamycin 10 nM or Torin 1 10 nM, 30 minutes, vs untreated): markedly inhibits stress fiber formation and cytoskeletal arrangement
- stress fiber formation in raptor-siRNA treated cells (U87MG cells; U87MG cells, siRNA 20 nM, SEMA3F 30 minutes): reduced stress fiber formation
- inhibition of stress fiber formation (U87MG cells; pcDNA3.1 control vector transfected U87MG cells, SEMA3F 640 ng/ml, 30 minutes): 90%
- DFO-induced VEGF protein secretion (VEGF): significantly reduced
